# Values quoted from earlier work in US5770691A, “Discriminatory substrates for MMP hydrolysis” (Regents of the University of Minnesota, priority 1995, dated 1998).
# B1: Human α1 -antichymotrypain: protease inhibitor cleaved by MMP-3 at Ala360-Leu361 (protein, UniProt P01011 24-423, looked up)
# Alpha-1-antichymotrypsin: HPNSPLDEENLTQENQDRGTHVDLGLASANVDFAFSLYKQLVLKAPDKNVIFSPLSISTALAFLSLGAHNTTLTEILKGLKFNLTETSEAEIHQSFQHLLRTLNQSSDELQLSMGNAMFVKEQLSLLDRFTEDAKRLYGSEAFATDFQDSAAAKKLINDYVKNGTRGKITDLIKDLDSQTMMVLVNYIFFKAKWEMPFDPQDTHQSRFYLSKKKWVMVPMMSLHHLTIPYFRDEELSCTVVELKYTGNASALFILPDQDKMEEVEAMLLPETLKRWRDSLEFREIGELYLPKFSISRDYNLNDILLQLGIEEAFTSKADLSGITGARNLAVSQVVHKAVLDVFEEGTEASAATAVKITLLSALVETRTIVRFNRPFLMIIVPTDTQNIFFMSKVTNPKQA
# Target: MMP-3 (Homo sapiens, UniProt P08254)
# Sequence (P08254 100-477, species assumed): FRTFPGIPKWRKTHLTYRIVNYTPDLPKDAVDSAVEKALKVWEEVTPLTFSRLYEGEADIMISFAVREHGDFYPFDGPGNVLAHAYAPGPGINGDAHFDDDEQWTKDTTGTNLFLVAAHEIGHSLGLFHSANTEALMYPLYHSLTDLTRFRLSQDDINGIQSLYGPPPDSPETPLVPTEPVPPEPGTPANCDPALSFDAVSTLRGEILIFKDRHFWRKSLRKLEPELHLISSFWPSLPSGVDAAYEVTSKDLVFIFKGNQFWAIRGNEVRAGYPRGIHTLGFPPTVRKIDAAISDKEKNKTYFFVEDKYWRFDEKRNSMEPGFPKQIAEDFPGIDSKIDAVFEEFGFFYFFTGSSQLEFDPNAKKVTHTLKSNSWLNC
# Conditions: MMP-3 cleavage, determined at 37° C.
molecule,measurement,value
B1,kcat /Kb,"35,000 S^-1 M^-1"
